The values below come from publication PMC2936784 (Science (New York, N.Y.), 2009).

The experiment deals with PTEN, purified from HEK293 cells (UniProt P60484 1-403). The experiment can be described thus: enzyme inhibition kinetics.
Chain of PTEN, purified from HEK293 cells (P60484 whole entry): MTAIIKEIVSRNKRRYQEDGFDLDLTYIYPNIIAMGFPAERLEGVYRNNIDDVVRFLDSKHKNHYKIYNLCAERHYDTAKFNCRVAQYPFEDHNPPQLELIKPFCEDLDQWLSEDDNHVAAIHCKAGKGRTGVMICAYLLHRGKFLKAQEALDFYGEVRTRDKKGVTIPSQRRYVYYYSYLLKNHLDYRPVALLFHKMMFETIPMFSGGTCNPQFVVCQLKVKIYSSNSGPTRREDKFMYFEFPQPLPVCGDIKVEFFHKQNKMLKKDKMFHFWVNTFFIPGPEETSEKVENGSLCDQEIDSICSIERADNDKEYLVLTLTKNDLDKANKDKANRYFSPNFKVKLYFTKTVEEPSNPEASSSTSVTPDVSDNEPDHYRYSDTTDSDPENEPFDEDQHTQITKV

B1: Affinity purified full-length P-REX2a (natural protein, UniProt Q70Z35 1-1606, looked up)
chain: MSEDSRGDSRAESAKDLEKQLRLRVCVLSELQKTERDYVGTLEFLVSAFLHRMNQCAASKVDKNVTEETVKMLFSNIEDILAVHKEFLKVVEECLHPEPNAQQEVGTCFLHFKDKFRIYDEYCSNHEKAQKLLLELNKIRTIRTFLLNCMLLGGRKNTDVPLEGYLVTPIQRICKYPLILKELLKRTPRKHSDYAAVMEALQAMKAVCSNINEAKRQMEKLEVLEEWQSHIEGWEGSNITDTCTEMLMCGVLLKISSGNIQERVFFLFDNLLVYCKRKHRRLKNSKASTDGHRYLFRGRINTEVMEVENVDDGTADFHSSGHIVVNGWKIHNTAKNKWFVCMAKTPEEKHEWFEAILKERERRKGLKLGMEQDTWVMISEQGEKLYKMMCRQGNLIKDRKRKLTTFPKCFLGSEFVSWLLEIGEIHRPEEGVHLGQALLENGIIHHVTDKHQFKPEQMLYRFRYDDGTFYPRNEMQDVISKGVRLYCRLHSLFTPVIRDKDYHLRTYKSVVMANKLIDWLIAQGDCRTREEAMIFGVGLCDNGFMHHVLEKSEFKDEPLLFRFFSDEEMEGSNMKHRLMKHDLKVVENVIAKSLLIKSNEGSYGFGLEDKNKVPIIKLVEKGSNAEMAGMEVGKKIFAINGDLVFMRPFNEVDCFLKSCLNSRKPLRVLVSTKPRETVKIPDSADGLGFQIRGFGPSVVHAVGRGTVAAAAGLHPGQCIIKVNGINVSKETHASVIAHVTACRKYRRPTKQDSIQWVYNSIESAQEDLQKSHSKPPGDEAGDAFDCKVEEVIDKFNTMAIIDGKKEHVSLTVDNVHLEYGVVYEYDSTAGIKCNVVEKMIEPKGFFSLTAKILEALAKSDEHFVQNCTSLNSLNEVIPTDLQSKFSALCSERIEHLCQRISSYKKFSRVLKNRAWPTFKQAKSKISPLHSSDFCPTNCHVNVMEVSYPKTSTSLGSAFGVQLDSRKHNSHDKENKSSEQGKLSPMVYIQHTITTMAAPSGLSLGQQDGHGLRYLLKEEDLETQDIYQKLLGKLQTALKEVEMCVCQIDDLLSSITYSPKLERKTSEGIIPTDSDNEKGERNSKRVCFNVAGDEQEDSGHDTISNRDSYSDCNSNRNSIASFTSICSSQCSSYFHSDEMDSGDELPLSVRISHDKQDKIHSCLEHLFSQVDSITNLLKGQAVVRAFDQTKYLTPGRGLQEFQQEMEPKLSCPKRLRLHIKQDPWNLPSSVRTLAQNIRKFVEEVKCRLLLALLEYSDSETQLRRDMVFCQTLVATVCAFSEQLMAALNQMFDNSKENEMETWEASRRWLDQIANAGVLFHFQSLLSPNLTDEQAMLEDTLVALFDLEKVSFYFKPSEEEPLVANVPLTYQAEGSRQALKVYFYIDSYHFEQLPQRLKNGGGFKIHPVLFAQALESMEGYYYRDNVSVEEFQAQINAASLEKVKQYNQKLRAFYLDKSNSPPNSTSKAAYVDKLMRPLNALDELYRLVASFIRSKRTAACANTACSASGVGLLSVSSELCNRLGACHIIMCSSGVHRCTLSVTLEQAIILARSHGLPPRYIMQATDVMRKQGARVQNTAKNLGVRDRTPQSAPRLYKLCEPPPPAGEE
As for B1, the inhibitory constant (Ki) (as a rule, the dissociation constant of the complex between target and ligand, obtained from inhibition or displacement) stood at 19 nM.
